# Measured values taken from paper PMC10855774, “Role of Spexin in White Adipose Tissue Thermogenesis under Basal and Cold-Stimulated Conditions” (International Journal of Molecular Sciences, 2024).
# B1: Spexin (peptide, UniProt Q9BT56 27-116, looked up)
# Spexin: APQRLLERRNWTPQAMLYLKGAQGRRFISDQSRRKDLSDRPLPERRSPNPQLLTIPEAATILLASLQKSPEDEEKNFDQTRFLEDSLLNW
# modifications: Spexin
# notes: novel adipokine, a peptide of 14 amino acids of the galanin family; purchased from Tocris
# Tests used:
# Format in all cases: in vivo, mice
# [1] = Adipose tissue depot mass percentage; settings: SPX 29 µg/kg/day ten days, cold (4 °C); SPX-C relative to CTR and CTR-C; C × S p < 0.05
# Procedure: (§1) Normal adult male C57BL/6 mice (four months of age) were kept in a temperature-controlled environment (20–22 °C and a fixed 12 h light/12 h dark cycle; lights on at 07:00 h) and fed ad libitum with Purina commercial rat/mouse chow (Ganave, Buenos Aires, Argentina, L0723/1). Mice were injected with SPX or PBS (29 µg/kg/day, Tocris, Bristol, UK) for ten days (the SPX and CTR groups, respectively). On the third day of the protocol, each group was subdivided into two other groups: one exposed to cold (4 °C, CTR-C and SPX-C, n = 12 mice for each group) and another one housed at RT (CTR and SPX, n = 15 mice for each group) (Figure 1). Food intake and body weight were measured every day. On the experimental day (day 10), the mice were euthanized under non-fasting conditions (08:00 to 09:00 h), and their trunk blood was collected; plasma samples were then frozen (–80 °C) until the metabolite measurement. Inguinal AT (IAT, subcutaneous depot), epididymal AT (EAT, visceral depot), and brown AT (BAT, subcutaneous depot) were aseptically dissected and weighed. These depots were kept at –80 °C for further procedures. Animals were euthanized according to protocols for animal use, in agreement with the NIH guidelines for the care and use of experimental animals. All experiments were approved by our Institutional Animal Care Committee (Approval code: 6NE-2023).
# [2] = Plasma glucose and triglyceride levels (commercial kits); settings: SPX 29 µg/kg/day ten days, RT or cold; non-fasting; n = 6–7
# Procedure: as §1, with “Animals were euthanized according to protocols for animal use, in agreement with the NIH guidelines for the care and use of experimental animals. All experiments were approved by our Institutional Animal Care Committee (Approval code: 6NE-2023).” left out
# Circulating glucose (Glu) and triglyceride (Tg) levels were measured using commercial kits (Wiener Lab., Rosario, Argentina). Plasma SPX was measured using a commercial ELISA kit (SPX: Phoenix pharmaceutical EK-023-81).
# cox8b = cox8b mRNA expression in AT depots (qRT-PCR); settings: cold, SPX-C vs. CTR-C, C × S p < 0.001
# Procedure: as §1
# Total RNA was isolated from cells by the Trizol extraction method (Invitrogen, Life Technology, Waltham, MA, USA) and reverse-transcribed using random primers (250 ng) and RevertAid Reverse Transcriptase (200 U/µL, Thermo Scientific, Waltham, MA, USA). […] The expression levels were analyzed for β-actin (βactin, […] gene), Uncoupling Protein 1 (ucp1), proliferator-activated receptor gamma coactivator-1 alpha (pgc1α), cytochrome-c oxidase subunit 8b (cox8b), galanin receptors 2 and 3 (galr2 and galr3, respectively), and Spexin (spx). […] The relative changes in the expression level of each gene (ΔΔCt) were calculated by the ΔCt method.
molecule,measurement,setting,value
B1,BAT mass percentage,[1],intermediate value
same,plasma Tg levels,[2],did not change
same,plasma glucose levels,[2],did not change
same,cox8b mRNA expression in EAT,cox8b,inhibitory effect of SPX under cold conditions
same,cox8b mRNA expression in IAT,cox8b,inhibitory effect of SPX under cold conditions
same,cox8b mRNA expression in BAT,cox8b; Supplementary Figure S2c,inhibitory effect of SPX under cold conditions
